Measured values taken from paper PMC11468923, “Mechanism of degrader-targeted protein ubiquitinability” (Science Advances, 2024).
Substitutions are numbered along the chain they refer to. Numbers in names are those of the source. Blank lines part the entries; values can stand above or below the binder they belong to.

Key:
[1] = biological target: T1, wild-type ubiquitin (donor ubiquitin, Ub^D) (human, UniProt P0CG48 1-76, C terminus isopeptide-linked to K93 of UBE2R1(C93K, S138C, C191S, C223S)); test: cryo-EM structure; closed cross-linked sample: 6 uM NEDD8-CRL2^VHL (1 equiv), MZ1 (1.5 equiv) and Brd4^BD2-Ub(G76S,K48C)-UBE2R1(C93K, S138C, C191S, C223S)-Ub (1.5 equiv), 10 min at 4 C; 20 mM Hepes, 150 mM NaCl, 0.5 mM TCEP, pH 7.5; Krios 300 keV; ~3.7 A; conditions: both partners purified
T1 construct: wild-type ubiquitin, the cut product of its precursor; Stood in the closed cryo-EM sample as part of the cross-linked conjugate m8

[2] = biological target: T2, ^15N-labeled ubiquitin (human wild-type Ub residues 1 to 76) (human, UniProt P0CG48 1-76, uniformly ^15N-labeled; C terminus isopeptide-linked to K93 of UBE2R1(C93K) in the conjugate sample); test: NMR 15N-1H HSQC chemical shift perturbation; ^15N-Ub free against ^15N-Ub isopeptide-linked to UBE2R1(C93K); 150 uM, 298 K, 600 MHz; 20 mM sodium phosphate, 150 mM NaCl, 0.5 mM TCEP, 5% D2O, pH 7.0; conditions: both partners purified
T2 construct: ubiquitin, human wild type, residues 1 to 76; also called ^15N-Ub; Ub(^15N); source: E. coli BL21(DE3) Rosetta II, ^15N autoinducing media, purified (His-Trap, TEV, SEC); not shown: His6, N-terminal, cleaved

binding result [1]: binds
B1: UBE2R1(C93K, S138C, C191S, C223S) (enzyme, human, UniProt P49427 1-236, looked up)
chain: MARPLVPSSQKALLLELKGLQEEPVEGFRVTLVDEGDLYNWEVAIFGPPNTYYEGGYFKARLKFPIDYPYSPPAFRFLTKMWHPNIYETGDVKISILHPPVDDPQSGELPSERWNPTQNVRTILLSVISLLNEPNTFCPANVDASVMYRKWKESKGKDREYTDIIRKQVLGTKVDAERDGVKVPTTLAEYSVKTKAPAPDEGSDLFYDDYYEDGEVEEEADSSFGDDEDDSGTEES
modifications: K93 (C93K) isopeptide-linked to the C terminus of donor ubiquitin; C138 (S138C) cross-linked by BMOE to Ub(K48C,G76S)-Brd4^BD2
notes: UBE2R1 (also known as Cdc34), human, full length; prepared by the same method as UBE2R1(C93K); Stood in the closed cryo-EM sample as part of the cross-linked conjugate m8; also called the E2; source: E. coli BL21(DE3) Rosetta II, purified (His-Trap, ULP1, SEC)

binding result [2]: binds
B2: UBE2R1(C93K) (enzyme, human, UniProt P49427 1-236, looked up)
chain: B1 chain with C138S, S191C, S223C
modifications: K93 (C93K) isopeptide-linked to the C terminus of ^15N-labeled ubiquitin
notes: UBE2R1 (also known as Cdc34), human, full length; also called Cdc34 C93K; the E2; source: E. coli BL21(DE3) Rosetta II, purified (His-Trap, ULP1, SEC)
